# Test results published in publication PMC10107152.
# Changes are numbered by the printed parent chain. Numbers in names are those of the source.
# B1: 2PS (2-pyrone synthase; WT-2PS) (Gerbera hybrid cultivar) (protein)
# chain: MGSYSSDDVEVIREAGRAQGLATILAIGTATPPNCVAQADYADYYFRVTKSEHMVDLKEKFKRICEKTAIKKRYLALTEDYLQENPTMCEFMAPSLNARQDLVVTGVPMLGKEAAVKAIDEWGLPKSKITHLIFCTTAGVDMPGADYQLVKLLGLSPSVKRYMLYQQGCAAGGTVLRLAKDLAENNKGSRVLIVCSEITAILFHGPNENHLDSLVAQALFGDGAAALIVGSGPHLAVERPIFEIVSTDQTILPDTEKAMKLHLREGGLTFQLHRDVPLMVAKNIENAAEKALSPLGITDWNSVFWMVHPGGRAILDQVERKLNLKEDKLRASRHVLSEYGNLISACVLFIIDEVRKRSMAEGKSTTGEGLDCGVLFGFGPGMTVETVVLRSVRVTAAVANGN
# B2: 2PS (2-pyrone synthase; WT-2PS) (Gerbera hybrid cultivar; I201V/I343S/L202T) (protein)
# chain: B1 chain with I201V, L202T, I343S
# B3: 2PS (2-pyrone synthase; WT-2PS) (Gerbera hybrid cultivar; I201V/I343S/L202T/L261V) (protein)
# chain: B1 chain with I201V, L202T, L261V, I343S
# B4: 2PS (2-pyrone synthase; WT-2PS) (Gerbera hybrid cultivar; I201V/I343S/L202T/L261G) (protein)
# chain: B1 chain with I201V, L202T, L261G, I343S
# B5: 2PS (2-pyrone synthase; WT-2PS) (Gerbera hybrid cultivar; I201V/I343S/L202T/L261A) (protein)
# chain: B1 chain with I201V, L202T, L261A, I343S
# B6: SPS (styrylpyrone synthase; WT-SPS) (Piper methysticum) (protein)
# chain: MSKTVEDRAAQRAKGPATVLAIGTATPANVVYQTDYPDYYFRVTKSEHMTKLKNKFQRMCDRSTIKKRYMVLTEELLEKNLSLCTYMEPSLDARQDILVPEVPKLGKEAADEAIAEWGRPKSEITHLIFCTTCGVDMPGADYQLTKLLGLRSSVRRTMLYQQGCFGGGTVLRLAKDLAENNAGARVLVVCSEITTAVNFRGPSDTHLDLLVGLALFGDGAAAVIVGADPDPTLERPLFQIVSGAQTILPDSEGAINGHLREVGLTIRLLKDVPGLVSMNIEKCLMEAFAPMGIHDWNSIFWIAHPGGPTILDQVEAKLGLKEEKLKSTRAVLREYGNMSSACVLFILDEVRKRSMEEGKTTTGEGFDWGVLFGFGPGFTVETVVLHSMPIPKADEGR
# Substrate: CC(C)(COP(=O)(O)OP(=O)(O)OC[C@H]1O[C@@H](n2cnc3c(N)ncnc32)[C@H](O)[C@@H]1OP(=O)(O)O)[C@@H](O)C(=O)NCCC(=O)NCCSC(=O)/C=C/c1ccccc1
# Assay: purified protein
# Settings: varied cinnamoyl-CoA; malonyl-CoA as extender
Protein,Km [µM],kcat [s⁻¹],kcat/Km [M⁻¹ s⁻¹]
B1,1.6 ± 0.5,0.000533 ± 5e-05,340 ± 60
B2,1.4 ± 0.3,0.000767 ± 3.33e-05,568 ± 116
B3,2.1 ± 0.5,0.00225 ± 0.000167,1070 ± 270
B4,7.1 ± 1.1,0.165 ± 0.01,23000 ± 4000
B5,4.2 ± 0.8,0.0312 ± 0.00233,7400 ± 1500
B6,3.7 ± 0.5,0.00287 ± 0.0001,770 ± 30
